Experimental data published in article PMC314469, “Protein Interaction Networks by Proteome Peptide Scanning” (PLoS Biology, 2004).
Each block holds one binder with its values, some of them ahead of it.

Experiments:
[1] = target: T1, amphyphisin SH3 (AMPH_HUMAN), P49418; experiment: SPOT array
T1 chain: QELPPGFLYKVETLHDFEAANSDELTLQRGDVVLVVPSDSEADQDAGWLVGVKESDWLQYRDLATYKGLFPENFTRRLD

[2] = target: endophilin SH3 (SH3G2_HUMAN), Q99962; experiment: SPOT array

B1: Q01459 44-57 (peptide)
chain: PEPELSRPIRHHPD
- normalised SPOT signal, Boehringer light units (BLU); mean over the file's lines of this peptide [1]: 98.6
- normalised SPOT signal, Boehringer light units (BLU); mean over the file's lines of this peptide [2]: 116

B2: Q9UGX2 21-34 (peptide)
chain: PESEIERPERLTAA
- normalised SPOT signal, Boehringer light units (BLU); mean over the file's lines of this peptide [1]: 124
- normalised SPOT signal, Boehringer light units (BLU); mean over the file's lines of this peptide [2]: 281

B3: Q9Y358 352-365 (peptide)
chain: ARPELRRPGVQGIP
- normalised SPOT signal, Boehringer light units (BLU); mean over the file's lines of this peptide [1]: 25.7
- normalised SPOT signal, Boehringer light units (BLU); mean over the file's lines of this peptide [2]: 73.8

B5: Q9BR43 91-104 (peptide)
chain: PSYHILRPSRNQDL
- normalised SPOT signal, Boehringer light units (BLU); mean over the file's lines of this peptide [1]: 412
- normalised SPOT signal, Boehringer light units (BLU); mean over the file's lines of this peptide [2]: 426

B6: Q96S08 21-34 (peptide)
chain: PAASPRRPAPRTGP
- normalised SPOT signal, Boehringer light units (BLU); mean over the file's lines of this peptide [1]: 21.1
- normalised SPOT signal, Boehringer light units (BLU); mean over the file's lines of this peptide [2]: 48.9

B11: Q9H5N7 170-183 (peptide)
chain: AARGLRRPEDSSRK
- normalised SPOT signal, Boehringer light units (BLU); mean over the file's lines of this peptide [1]: 18
- normalised SPOT signal, Boehringer light units (BLU); mean over the file's lines of this peptide [2]: 3.6

B12: Q9UIC6 53-66 (peptide)
chain: ARRLLVRPARLRRH
- normalised SPOT signal, Boehringer light units (BLU); mean over the file's lines of this peptide [1]: 1340
- normalised SPOT signal, Boehringer light units (BLU); mean over the file's lines of this peptide [2]: 67.4

B13: O00456 575-588 (peptide)
chain: PAQLPRRPAQRPGE
- normalised SPOT signal, Boehringer light units (BLU); mean over the file's lines of this peptide [1]: 29.4
- normalised SPOT signal, Boehringer light units (BLU); mean over the file's lines of this peptide [2]: 28.3

B14: Q9Y215 243-257 (peptide)
chain: PSTLPRRPPVPSGQ
- normalised SPOT signal, Boehringer light units (BLU); mean over the file's lines of this peptide [1]: 309
- normalised SPOT signal, Boehringer light units (BLU); mean over the file's lines of this peptide [2]: 2140

B15: Q9BYN7 703-717 (peptide)
chain: PEAVPGKPPFAEPD
- normalised SPOT signal, Boehringer light units (BLU); mean over the file's lines of this peptide [1]: 71.4
- normalised SPOT signal, Boehringer light units (BLU); mean over the file's lines of this peptide [2]: 63.8

B16: Q9UGB8 1078-1091 (peptide)
chain: PDPGFLRPQRAALY
- normalised SPOT signal, Boehringer light units (BLU); mean over the file's lines of this peptide [1]: 986
- normalised SPOT signal, Boehringer light units (BLU); mean over the file's lines of this peptide [2]: 310

B17: Q9BR83 136-149 (peptide)
chain: PAPRIKRPRLQVVK
- normalised SPOT signal, Boehringer light units (BLU); mean over the file's lines of this peptide [1]: 70.5
- normalised SPOT signal, Boehringer light units (BLU); mean over the file's lines of this peptide [2]: 27.2

B18: P01031 668-681 (peptide)
chain: PSKEILRPRRTLQK
- normalised SPOT signal, Boehringer light units (BLU); mean over the file's lines of this peptide [1]: 1040
- normalised SPOT signal, Boehringer light units (BLU); mean over the file's lines of this peptide [2]: 181

B19: Q9UPV8 1233-1246 (peptide)
chain: PATAPARPLRLPSG
- normalised SPOT signal, Boehringer light units (BLU); mean over the file's lines of this peptide [1]: 11300
- normalised SPOT signal, Boehringer light units (BLU); mean over the file's lines of this peptide [2]: 7710

B20: Q9UK39 24-37 (peptide)
chain: PAPGLRRPLSPPAA
- normalised SPOT signal, Boehringer light units (BLU); mean over the file's lines of this peptide [1]: 57.1
- normalised SPOT signal, Boehringer light units (BLU); mean over the file's lines of this peptide [2]: 104

B22: Q9C0C1 1172-1185 (peptide)
chain: PDVWLRRPSTHTSG
- normalised SPOT signal, Boehringer light units (BLU); mean over the file's lines of this peptide [1]: 60.1
- normalised SPOT signal, Boehringer light units (BLU); mean over the file's lines of this peptide [2]: 242

B24: Q9NQ45 25-38 (peptide)
chain: PASALPRPPRLSGS
- normalised SPOT signal, Boehringer light units (BLU); mean over the file's lines of this peptide [1]: 4470
- normalised SPOT signal, Boehringer light units (BLU); mean over the file's lines of this peptide [2]: 92.9

B25: Q9P281 735-748 (peptide)
chain: ARRGPGRPRKRKHS
- normalised SPOT signal, Boehringer light units (BLU); mean over the file's lines of this peptide [1]: 121
- normalised SPOT signal, Boehringer light units (BLU); mean over the file's lines of this peptide [2]: 231

B26: Q9NUE8 153-166 (peptide)
chain: PEDAPKRPKEAAPD
- normalised SPOT signal, Boehringer light units (BLU); mean over the file's lines of this peptide [1]: 19.3
- normalised SPOT signal, Boehringer light units (BLU); mean over the file's lines of this peptide [2]: 23.2

B27: Q9UQ51 6-19 (peptide)
chain: PAVPPGRPRRGSLP
- normalised SPOT signal, Boehringer light units (BLU); mean over the file's lines of this peptide [1]: 2070
- normalised SPOT signal, Boehringer light units (BLU); mean over the file's lines of this peptide [2]: 7480

B28: Q8WZ58 338-351 (peptide)
chain: PAPRLRRPGRVRPH
- normalised SPOT signal, Boehringer light units (BLU); mean over the file's lines of this peptide [1]: 71.5
- normalised SPOT signal, Boehringer light units (BLU); mean over the file's lines of this peptide [2]: 71.1

B29: Q9HCM5 24-37 (peptide)
chain: PAARPRRPPTTLPP
- normalised SPOT signal, Boehringer light units (BLU); mean over the file's lines of this peptide [1]: 109
- normalised SPOT signal, Boehringer light units (BLU); mean over the file's lines of this peptide [2]: 7270

B31: Q9H7P7 809-822 (peptide)
chain: PASAFDRPARTRGQ
- normalised SPOT signal, Boehringer light units (BLU); mean over the file's lines of this peptide [1]: 2010
- normalised SPOT signal, Boehringer light units (BLU); mean over the file's lines of this peptide [2]: 98.4

B32: Q9UKQ9 224-237 (peptide)
chain: PSSRPRRPAVYTSV
- normalised SPOT signal, Boehringer light units (BLU); mean over the file's lines of this peptide [1]: 39.7
- normalised SPOT signal, Boehringer light units (BLU); mean over the file's lines of this peptide [2]: 260

B34: Q8TF74 224-238 (peptide)
chain: PAPPPVKPPPSPVN
- normalised SPOT signal, Boehringer light units (BLU); mean over the file's lines of this peptide [1]: 43.7
- normalised SPOT signal, Boehringer light units (BLU); mean over the file's lines of this peptide [2]: 182

B36: Q9ULT6 397-410 (peptide)
chain: PAHPFRRPKLSGRS
- normalised SPOT signal, Boehringer light units (BLU); mean over the file's lines of this peptide [1]: 49.5
- normalised SPOT signal, Boehringer light units (BLU); mean over the file's lines of this peptide [2]: 64.8

B41: Q9ULT2 697-711 (peptide)
chain: PAVPPARPPTAQEV
- normalised SPOT signal, Boehringer light units (BLU); mean over the file's lines of this peptide [1]: 92
- normalised SPOT signal, Boehringer light units (BLU); mean over the file's lines of this peptide [2]: 509

B42: Q9P2D1 825-838 (peptide)
chain: PSAKPRRPQDKSQG
- normalised SPOT signal, Boehringer light units (BLU); mean over the file's lines of this peptide [1]: 38.3
- normalised SPOT signal, Boehringer light units (BLU); mean over the file's lines of this peptide [2]: 78.4

Results, then the binder that gave them:

- normalised SPOT signal, Boehringer light units (BLU); mean over the file's lines of this peptide [1]: 152
- normalised SPOT signal, Boehringer light units (BLU); mean over the file's lines of this peptide [2]: 143
B4: Q99941 295-308 (peptide)
chain: PAPSLPRPERKSIV

- normalised SPOT signal, Boehringer light units (BLU); mean over the file's lines of this peptide [1]: 24.5
- normalised SPOT signal, Boehringer light units (BLU); mean over the file's lines of this peptide [2]: 12.2
B7: Q14289 406-419 (peptide)
chain: PDETLRRPGGPQYG

- normalised SPOT signal, Boehringer light units (BLU); mean over the file's lines of this peptide [1]: 548
- normalised SPOT signal, Boehringer light units (BLU); mean over the file's lines of this peptide [2]: 1370
B8: P51511 326-340 (peptide)
chain: PDHRPPRPPQPPPP

- normalised SPOT signal, Boehringer light units (BLU); mean over the file's lines of this peptide [1]: 105
- normalised SPOT signal, Boehringer light units (BLU); mean over the file's lines of this peptide [2]: 196
B9: P78325 461-474 (peptide)
chain: PAGELSRPKKDMSD

- normalised SPOT signal, Boehringer light units (BLU); mean over the file's lines of this peptide [1]: 32.1
- normalised SPOT signal, Boehringer light units (BLU); mean over the file's lines of this peptide [2]: 95.5
B10: Q13393 385-398 (peptide)
chain: PEIFLKRPVVEGNR

- normalised SPOT signal, Boehringer light units (BLU); mean over the file's lines of this peptide [1]: 635
- normalised SPOT signal, Boehringer light units (BLU); mean over the file's lines of this peptide [2]: 6240
B21: Q13480 337-351 (peptide)
chain: PDIPPPRPPKPHPA

- normalised SPOT signal, Boehringer light units (BLU); mean over the file's lines of this peptide [1]: 35.9
- normalised SPOT signal, Boehringer light units (BLU); mean over the file's lines of this peptide [2]: 52.2
B23: P55060 21-34 (peptide)
chain: PDPAIRRPAEKFLE

- normalised SPOT signal, Boehringer light units (BLU); mean over the file's lines of this peptide [1]: 869
- normalised SPOT signal, Boehringer light units (BLU); mean over the file's lines of this peptide [2]: 1390
B30: Q16623 232-245 (peptide)
chain: PSLTPRRPSSTRAR

- normalised SPOT signal, Boehringer light units (BLU); mean over the file's lines of this peptide [1]: 599
- normalised SPOT signal, Boehringer light units (BLU); mean over the file's lines of this peptide [2]: 1720
B33: O60593 320-334 (peptide)
chain: PALSPTRPPKKPLD

- normalised SPOT signal, Boehringer light units (BLU); mean over the file's lines of this peptide [1]: 24.4
- normalised SPOT signal, Boehringer light units (BLU); mean over the file's lines of this peptide [2]: 62.3
B35: Q16378 41-55 (peptide)
chain: PDQGPQRPPPEGLL

- normalised SPOT signal, Boehringer light units (BLU); mean over the file's lines of this peptide [1]: 56.7
- normalised SPOT signal, Boehringer light units (BLU); mean over the file's lines of this peptide [2]: 45.8
B37: Q14184 101-115 (peptide)
chain: PARPPAKPPEDEPD

- normalised SPOT signal, Boehringer light units (BLU); mean over the file's lines of this peptide [1]: 16.5
- normalised SPOT signal, Boehringer light units (BLU); mean over the file's lines of this peptide [2]: 108
B38: Q92542 409-422 (peptide)
chain: PAVILRRPNQSQPL

- normalised SPOT signal, Boehringer light units (BLU); mean over the file's lines of this peptide [1]: 2020
- normalised SPOT signal, Boehringer light units (BLU); mean over the file's lines of this peptide [2]: 3100
B39: Q13078 876-889 (peptide)
chain: PSPAPPRPARVPAH

- normalised SPOT signal, Boehringer light units (BLU); mean over the file's lines of this peptide [1]: 13
- normalised SPOT signal, Boehringer light units (BLU); mean over the file's lines of this peptide [2]: 27.2
B40: P16989 219-232 (peptide)
chain: ARNQLRRPQYRPQY
